{
  "source": "the supplement of paper PMC10567573",
  "parents": {"B1": {"name": "KCNAB2 (parent)", "chain": "IPPYSRASLKGYQWLKDKILSEEG"}},
  "data": [
    {"variants_of": "B1", "assay": "protein stability index of a GFP-peptide fusion (GPS, HEK-293T) (PSI 1-6); higher = more stable", "settings": "c terminus: a fixed tail appended", "values": [
      {"variant": "IPPYSRASLKGYQWLCDKILSEEG", "note": "[K16C]", "protein stability index": 3.16},
      {"variant": "IPPYSRASLKGYQWLADKILSEEG", "note": "[K16A]", "protein stability index": 1.82},
      {"variant": "IPPYSRASLKGYQWLNDKILSEEG", "note": "[K16N]", "protein stability index": 3.29},
      {"variant": "IPPYSRASLKGYQWLQDKILSEEG", "note": "[K16Q]", "protein stability index": 2.31},
      {"variant": "IPPYSRASLKGYQWLEDKILSEEG", "note": "[K16E]", "protein stability index": 2.19},
      {"variant": "IPPYSRASLKGYQWLSDKILSEEG", "note": "[K16S]", "protein stability index": 2.38},
      {"variant": "IPPYSRASLKGYQWLHDKILSEEG", "note": "[K16H]", "protein stability index": 1.53},
      {"variant": "IPPYSRASLKGYQWLKDHILSEEG", "note": "[K18H]", "protein stability index": 1.98},
      {"variant": "IPPYSRASLKGYQWLKDMILSEEG", "note": "[K18M]", "protein stability index": 2.78},
      {"variant": "IPPYSRASLKGYQWLKDNILSEEG", "note": "[K18N]", "protein stability index": 3.29},
      {"variant": "IPPYSRASLKGYQWLKDCILSEEG", "note": "[K18C]", "protein stability index": 2.51},
      {"variant": "IPPYSRASLKGYQWLKDYILSEEG", "note": "[K18Y]", "protein stability index": 2.05},
      {"variant": "IPPYSRATLKGYQWLKDKILSEEG", "note": "[S8T]", "protein stability index": 2.24},
      {"variant": "IPPYSRANLKGYQWLKDKILSEEG", "note": "[S8N]", "protein stability index": 2.53},
      {"variant": "IPPYSRAQLKGYQWLKDKILSEEG", "note": "[S8Q]", "protein stability index": 2.72},
      {"variant": "IPPYSRAFLKGYQWLKDKILSEEG", "note": "[S8F]", "protein stability index": 2.21},
      {"variant": "IPPYSRAYLKGYQWLKDKILSEEG", "note": "[S8Y]", "protein stability index": 1.9},
      {"variant": "IPPYSRASLKGYQWLKWKILSEEG", "note": "[D17W]", "protein stability index": 1.72},
      {"variant": "IPPYSRASLKGYQWLKAKILSEEG", "note": "[D17A]", "protein stability index": 2.65},
      {"variant": "IPPYSRASLKGYQWLKNKILSEEG", "note": "[D17N]", "protein stability index": 2.39},
      {"variant": "IPPYSRASLKGYQWLKLKILSEEG", "note": "[D17L]", "protein stability index": 1.93},
      {"variant": "IPPYSRASLKGYQWLKVKILSEEG", "note": "[D17V]", "protein stability index": 2.51},
      {"variant": "IPPYSRASLKGYPWLKDKILSEEG", "note": "[Q13P]", "protein stability index": 2.03},
      {"variant": "IPPYSRASLKGYYWLKDKILSEEG", "note": "[Q13Y]", "protein stability index": 1.53},
      {"variant": "IPPYSRASLKGYCWLKDKILSEEG", "note": "[Q13C]", "protein stability index": 1.84},
      {"variant": "IPPYSRASLKGYRWLKDKILSEEG", "note": "[Q13R]", "protein stability index": 2.49},
      {"variant": "IPPYSRASLKGYNWLKDKILSEEG", "note": "[Q13N]", "protein stability index": 2.32},
      {"variant": "IPPYSRASLKGYEWLKDKILSEEG", "note": "[Q13E]", "protein stability index": 2.34},
      {"variant": "IPPYSRASLKGYLWLKDKILSEEG", "note": "[Q13L]", "protein stability index": 1.16},
      {"variant": "IPPYSRASLKGYSWLKDKILSEEG", "note": "[Q13S]", "protein stability index": 2.95},
      {"variant": "IPPYSRASLEGYQWLKDKILSEEG", "note": "[K10E]", "protein stability index": 3.57},
      {"variant": "IPPYSRASLPGYQWLKDKILSEEG", "note": "[K10P]", "protein stability index": 3.76},
      {"variant": "IPPYSRASLTGYQWLKDKILSEEG", "note": "[K10T]", "protein stability index": 3.38},
      {"variant": "IPPYSRASLSGYQWLKDKILSEEG", "note": "[K10S]", "protein stability index": 3.34},
      {"variant": "IPPYSRASLLGYQWLKDKILSEEG", "note": "[K10L]", "protein stability index": 2.37},
      {"variant": "IPPYSRASLIGYQWLKDKILSEEG", "note": "[K10I]", "protein stability index": 2.2},
      {"variant": "IPPYSRASLGGYQWLKDKILSEEG", "note": "[K10G]", "protein stability index": 2.88},
      {"variant": "IPPYSRASLAGYQWLKDKILSEEG", "note": "[K10A]", "protein stability index": 2.47},
      {"variant": "IPPYSRASLFGYQWLKDKILSEEG", "note": "[K10F]", "protein stability index": 1.67},
      {"variant": "IPPYSRDSLKGYQWLKDKILSEEG", "note": "[A7D]", "protein stability index": 3.15},
      {"variant": "IPPYSRPSLKGYQWLKDKILSEEG", "note": "[A7P]", "protein stability index": 2.45},
      {"variant": "IPPYSRNSLKGYQWLKDKILSEEG", "note": "[A7N]", "protein stability index": 2.22},
      {"variant": "IPPYSRGSLKGYQWLKDKILSEEG", "note": "[A7G]", "protein stability index": 2.58},
      {"variant": "IPPYSRCSLKGYQWLKDKILSEEG", "note": "[A7C]", "protein stability index": 1.59},
      {"variant": "IPPYSRFSLKGYQWLKDKILSEEG", "note": "[A7F]", "protein stability index": 2.23},
      {"variant": "IPPYSRMSLKGYQWLKDKILSEEG", "note": "[A7M]", "protein stability index": 1.8},
      {"variant": "IPPYSRTSLKGYQWLKDKILSEEG", "note": "[A7T]", "protein stability index": 2.23},
      {"variant": "IPPYSRYSLKGYQWLKDKILSEEG", "note": "[A7Y]", "protein stability index": 1.46},
      {"variant": "IPPYDRASLKGYQWLKDKILSEEG", "note": "[S5D]", "protein stability index": 2.8},
      {"variant": "IPPYHRASLKGYQWLKDKILSEEG", "note": "[S5H]", "protein stability index": 2.63},
      {"variant": "IPPYERASLKGYQWLKDKILSEEG", "note": "[S5E]", "protein stability index": 3.09},
      {"variant": "IPPYARASLKGYQWLKDKILSEEG", "note": "[S5A]", "protein stability index": 2.15},
      {"variant": "IPPYRRASLKGYQWLKDKILSEEG", "note": "[S5R]", "protein stability index": 1.82},
      {"variant": "IPPYFRASLKGYQWLKDKILSEEG", "note": "[S5F]", "protein stability index": 3.12},
      {"variant": "IPPYYRASLKGYQWLKDKILSEEG", "note": "[S5Y]", "protein stability index": 2.79},
      {"variant": "IPPYSRASLKGYQWLKDKRLSEEG", "note": "[I19R]", "protein stability index": 3.32},
      {"variant": "IPPYSRASLKGYQWLKDKSLSEEG", "note": "[I19S]", "protein stability index": 3.16},
      {"variant": "IPPYSRASLKGYQWLKDKQLSEEG", "note": "[I19Q]", "protein stability index": 2.12},
      {"variant": "IPPYSRASLKGYQWLKDKTLSEEG", "note": "[I19T]", "protein stability index": 3.4},
      {"variant": "IPPYSRASLKGYQWLKDKELSEEG", "note": "[I19E]", "protein stability index": 4},
      {"variant": "IPPYSRASLKGYQWLKDKALSEEG", "note": "[I19A]", "protein stability index": 2.57},
      {"variant": "IPPYSRASLKGYQWLKDKDLSEEG", "note": "[I19D]", "protein stability index": 3.73},
      {"variant": "IPPYSRASLKYYQWLKDKILSEEG", "note": "[G11Y]", "protein stability index": 2.91},
      {"variant": "IPPYSRASLKHYQWLKDKILSEEG", "note": "[G11H]", "protein stability index": 2.19},
      {"variant": "IPPYSRASLKQYQWLKDKILSEEG", "note": "[G11Q]", "protein stability index": 2.96},
      {"variant": "IPPYSRASLKPYQWLKDKILSEEG", "note": "[G11P]", "protein stability index": 2.46},
      {"variant": "IPPYSRASLKAYQWLKDKILSEEG", "note": "[G11A]", "protein stability index": 1.8},
      {"variant": "IPPYSRASLKRYQWLKDKILSEEG", "note": "[G11R]", "protein stability index": 2.66},
      {"variant": "IPPYSRASLKWYQWLKDKILSEEG", "note": "[G11W]", "protein stability index": 3.38},
      {"variant": "IPPYSRASLKIYQWLKDKILSEEG", "note": "[G11I]", "protein stability index": 2.37},
      {"variant": "IPPYSRASLKGYQNLKDKILSEEG", "note": "[W14N]", "protein stability index": 3.78},
      {"variant": "IPPYSRASLKGYQLLKDKILSEEG", "note": "[W14L]", "protein stability index": 3.57},
      {"variant": "IPPYSRASLKGYQPLKDKILSEEG", "note": "[W14P]", "protein stability index": 3.97},
      {"variant": "IPPYSRASLKGYQHLKDKILSEEG", "note": "[W14H]", "protein stability index": 3.57},
      {"variant": "IPPYSRASLKGYQMLKDKILSEEG", "note": "[W14M]", "protein stability index": 3.66},
      {"variant": "IPPYSRASLKGYQGLKDKILSEEG", "note": "[W14G]", "protein stability index": 4.07},
      {"variant": "IPPYSRASLKGYQVLKDKILSEEG", "note": "[W14V]", "protein stability index": 3.6},
      {"variant": "IPPYSRASLKGYQWLKDKIASEEG", "note": "[L20A]", "protein stability index": 3.71},
      {"variant": "IPPYSRASLKGYQWLKDKIGSEEG", "note": "[L20G]", "protein stability index": 2.19},
      {"variant": "IPPYSRASLKGYQWLKDKIPSEEG", "note": "[L20P]", "protein stability index": 3.27},
      {"variant": "IPPYSRASLKGYQWLKDKIYSEEG", "note": "[L20Y]", "protein stability index": 2.51},
      {"variant": "IPPYSRASLKGYQWLKDKIKSEEG", "note": "[L20K]", "protein stability index": 2.81},
      {"variant": "IPPYSRASLKGYQWLKDKITSEEG", "note": "[L20T]", "protein stability index": 3.54},
      {"variant": "IPPYSRASLKGYQWLKDKIWSEEG", "note": "[L20W]", "protein stability index": 2.54},
      {"variant": "IPPYSRASLKGYQWLKDKIVSEEG", "note": "[L20V]", "protein stability index": 2},
      {"variant": "IPPYSRASLKGYQWLKDKILSCEG", "note": "[E22C]", "protein stability index": 2.09},
      {"variant": "IPPYSRASLKGYQWLKDKILSREG", "note": "[E22R]", "protein stability index": 1.62},
      {"variant": "IPPYSRASLKGYQWLKDKILSAEG", "note": "[E22A]", "protein stability index": 2.74},
      {"variant": "IPPYSRASLKGYQWLKDKILSKEG", "note": "[E22K]", "protein stability index": 1.75},
      {"variant": "IPPYSRASLKGYQWLKDKILSDEG", "note": "[E22D]", "protein stability index": 2.68},
      {"variant": "IPPYSRASLKGYQWLKDKILSNEG", "note": "[E22N]", "protein stability index": 2.26},
      {"variant": "IPPYSRASLKGYQWLKDKILSSEG", "note": "[E22S]", "protein stability index": 2.08},
      {"variant": "IPPYSRASLKGYQWLKDKILSTEG", "note": "[E22T]", "protein stability index": 1.97},
      {"variant": "IPPYSRASLKGYQWLKDKILSQEG", "note": "[E22Q]", "protein stability index": 2.47}
    ]}
  ]
}
